The target in this test is PP2A-B55 phosphatase (B55, A and C subunits) of Xenopus egg extracts (Xenopus (endogenous in egg extracts)) (UniProt Q7ZX64). Briefly: enzyme inhibition kinetics (dephosphorylation of p-S113-Arpp19); kinase inactivated interphase extracts diluted 1/50 to 1/200; substrate p-S113-Arpp19 120 to 2000 nM; FAM122A 50, 125 and 250 nM or Thio-S71-Arpp19 1, 2 and 3 nM; quantitative western blot; global fit, competitive mode.

Our source for the Ki values is publication PMC10943098.

“His-Xenopus FAM122A (wildtype) (natural protein)” showed a Ki of 28.1 nM.
Next, “untagged thio-S71-phosphorylated Arpp19 (natural protein)”: 0.22 nM.
